Results on 8 molecules are retold here after patent US20200024360A1 (Janssen / Centocor, published 2020).

Test [1] concerns the target T1, Cynomolgous monkey PSMA, full length (Macaca fascicularis, UniProt Q04609 1-750 (human entry)).
T1 construct: On transfected HEK293F cells; also called cyno PSMA; EHH56646.1
T1 chain: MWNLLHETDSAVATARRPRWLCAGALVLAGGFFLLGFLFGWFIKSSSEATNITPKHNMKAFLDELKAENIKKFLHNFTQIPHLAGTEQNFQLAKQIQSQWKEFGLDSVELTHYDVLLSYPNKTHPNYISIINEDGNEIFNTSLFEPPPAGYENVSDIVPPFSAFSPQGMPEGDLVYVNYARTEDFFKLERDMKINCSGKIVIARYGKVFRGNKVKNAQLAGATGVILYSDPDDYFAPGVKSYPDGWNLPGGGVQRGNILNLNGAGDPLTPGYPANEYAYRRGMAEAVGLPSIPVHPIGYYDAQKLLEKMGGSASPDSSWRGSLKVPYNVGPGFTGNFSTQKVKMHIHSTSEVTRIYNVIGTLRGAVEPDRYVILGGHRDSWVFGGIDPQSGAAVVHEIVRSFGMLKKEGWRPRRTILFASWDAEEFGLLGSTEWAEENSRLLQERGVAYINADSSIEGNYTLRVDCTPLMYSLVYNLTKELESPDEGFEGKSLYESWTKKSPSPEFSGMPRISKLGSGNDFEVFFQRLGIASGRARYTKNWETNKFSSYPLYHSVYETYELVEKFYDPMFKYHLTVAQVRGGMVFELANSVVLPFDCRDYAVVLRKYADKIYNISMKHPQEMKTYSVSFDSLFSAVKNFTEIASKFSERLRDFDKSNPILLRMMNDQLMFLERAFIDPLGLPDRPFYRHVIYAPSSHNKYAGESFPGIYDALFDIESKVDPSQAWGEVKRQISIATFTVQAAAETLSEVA
The experiment in a line: FACS, whole cell binding, cyno PSMA HEK. On the procedure: (§1) PSMA×CD3 bispecific antibodies were tested for binding to PSMA positive cell lines LNCAP, human PSMA-HEK, Chimpanzee-PSMA-HEK and Cynomolgous monkey PSMA-HEK. To assess the binding capabilities of the PSMA bispecific antibodies, the cell-binding assay was utilized (described previously). Briefly, PSMA expressing tumor cells are bound by bispecific antibodies at known concentrations and the bound antibody is detected by an anti-human kappa light chain PE conjugated detection reagent (Invitrogen). The Mean Fluorescents Intensity (MFI) is the measure of bound bispecific antibody. The MFI is converted to a relative EC₅₀. EC₅₀ is a commonly used dose-response curve, where the half maximal effective concentration or the EC₅₀ point is defined as the inflection point of the curve. EC₅₀ s were determined by measuring cell bound bispecific and known concentrations. […] The dose response curves were then diluted down to that of background or no bispecific binding. The inflection point of this curve reflects the EC₅₀ point. The calculated EC₅₀ is determined by taking the ug/ml amount of bispecific antibody at the EC₅₀ point and converting it to a molarity value based on the MW of the bispecific antibody. Bispecific antibodies were normalized for protein concentration and then incubated with the same number of cells expressing either human or cyno PSMA. The MFI at each concentration was collected by flow cytometry and plotted as a function of concentration. Data was transformed via log 10 and then plotted. Nonlinear regression of binding curves was done to determine EC₅₀ s. These relative values were used for ranking PSMA binding to target cells.
(In general: In flow cytometry, cells or beads pass a laser one at a time.)

Test [2] deals with T2, chimpanzee PSMA, full length (Pan troglodytes, UniProt Q04609 1-750 (human entry)).
T2 construct: On transfected HEK293F cells; also called chimp PSMA; H2Q3K5_PANTR
T2 chain: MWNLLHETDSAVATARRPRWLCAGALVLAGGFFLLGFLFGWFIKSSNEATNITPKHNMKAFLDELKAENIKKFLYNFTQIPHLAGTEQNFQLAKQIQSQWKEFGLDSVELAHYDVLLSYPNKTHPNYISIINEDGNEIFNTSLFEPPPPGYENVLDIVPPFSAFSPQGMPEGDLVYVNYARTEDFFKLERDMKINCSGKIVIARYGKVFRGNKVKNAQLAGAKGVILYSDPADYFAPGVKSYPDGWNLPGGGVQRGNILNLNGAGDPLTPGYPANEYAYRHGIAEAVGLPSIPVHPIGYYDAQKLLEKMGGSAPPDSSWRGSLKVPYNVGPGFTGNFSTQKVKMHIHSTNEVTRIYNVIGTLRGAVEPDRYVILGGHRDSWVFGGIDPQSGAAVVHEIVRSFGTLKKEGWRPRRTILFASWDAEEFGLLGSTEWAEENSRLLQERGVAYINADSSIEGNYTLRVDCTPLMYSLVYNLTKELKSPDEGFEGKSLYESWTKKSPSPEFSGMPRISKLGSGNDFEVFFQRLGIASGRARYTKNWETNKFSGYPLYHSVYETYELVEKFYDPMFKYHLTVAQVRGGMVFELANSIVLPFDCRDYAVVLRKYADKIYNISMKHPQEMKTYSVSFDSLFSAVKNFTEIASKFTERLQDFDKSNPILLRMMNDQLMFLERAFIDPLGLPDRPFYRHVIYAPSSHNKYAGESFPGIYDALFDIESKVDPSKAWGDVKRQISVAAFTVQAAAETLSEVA
The experiment in a line: FACS, whole cell binding, chimp PSMA HEK; calculated EC50. On the procedure: as §1

Test [3] deals with T1, Cynomolgous monkey PSMA, full length. The experiment in a line: FACS, whole cell binding, cyno PSMA HEK; calculated EC50. Here is the method: as §1
The target in test [4] is T3, human PSMA (prostate specific membrane antigen), full length (human, UniProt Q04609 1-750).
T3 construct: On LNCaP or C4-2B cells (endogenous) or transduced HEK293F cells; also called FOLH1_HUMAN; hPSMA
The experiment in a line: FACS, whole cell binding, LNCaP; calculated EC50. On the procedure:
as §1

B1: PS3B27 (bispecific antibody, human IgG4 S228P, kappa, lambda, F234A L235A)
heavy 1: not shown
light 1: not shown
heavy 2: EVQLVESGGGLVQPGGSLRLSCAASGFTFNTYAMNWVRQAPGKGLEWVARIRSKYNNYATYYAASVKGRFTISRDDSKNSLYLQMNSLKTEDTAVYYCARHGNFGNSYVSWFAYWGQGTLVTVSSASTKGPSVFPLAPCSRSTSESTAALGCLVKDYFPEPVTVSWNSGALTSGVHTFPAVLQSSGLYSLSSVVTVPSSSLGTKTYTCNVDHKPSNTKVDKRVESKYGPPCPPCPAPEAAGGPSVFLFPPKPKDTLMISRTPEVTCVVVDVSQEDPEVQFNWYVDGVEVHNAKTKPREEQFNSTYRVVSVLTVLHQDWLNGKEYKCKVSNKGLPSSIEKTISKAKGQPREPQVYTLPPSQEEMTKNQVSLTCLVKGFYPSDIAVEWESNGQPENNYKTTPPVLDSDGSFLLYSKLTVDKSRWQEGNVFSCSVMHEALHNHYTQKSLSLSLGK
light 2: QTVVTQEPSLTVSPGGTVTLTCRSSTGAVTTSNYANWVQQKPGQAPRGLIGGTNKRAPGTPARFSGSLLGGKAALTLSGVQPEDEAEYYCALWYSNLWVFGGGTKLTVLGQPKAAPSVTLFPPSSEELQANKATLVCLISDFYPGAVTVAWKADSSPVKAGVETTTPSKQSNNKYAASSYLSLTPEQWKSHRSYSCQVTHEGSTVEKTVAPTECS
notes: IgG4 PAA; PSMA arm chains first, then CD3 arm (F405L, R409K); also called PSMB127 x CD3B219; PS2B27
In the case of B1, the EC50 in test [1] is 1.4 µg/mL; in test [2], 22.8 nM; in test [3], 9.9 nM; in test [4], 14.6 nM.

B2: PS3B23 (bispecific antibody, human IgG4 S228P, kappa, lambda, F234A L235A)
heavy 1: not shown
light 1: not shown
heavy 2: B1 heavy 2
light 2: B1 light 2
notes: IgG4 PAA; PSMA arm chains first, then CD3 arm (F405L, R409K); also called PSMB123 x CD3B219
With B2, the half-maximal effective concentration (EC50) in test [1] is 3.74 µg/mL; in test [2], 6.18 nM; in test [3], 26.4 nM.

B3: PS3B22 (bispecific antibody, human IgG4 S228P, kappa, lambda, F234A L235A)
heavy 1: not shown
light 1: DIQMTQSPSSLSASVGDRVTITCRASQSIDRWLNWYQQKPGKAPKLLIYAASSLQSGVPSRFSGSGSGTDFTLTISSLQPEDFATYYCQQSPRYPLTFGQGTKVEIKRTVAAPSVFIFPPSDEQLKSGTASVVCLLNNFYPREAKVQWKVDNALQSGNSQESVTEQDSKDSTYSLSSTLTLSKADYEKHKVYACEVTHQGLSSPVTKSFNRGEC
heavy 2: B1 heavy 2
light 2: B1 light 2
notes: IgG4 PAA; PSMA arm chains first, then CD3 arm (F405L, R409K); also called PSMB122 x CD3B219; PSB22
As to B3, the EC50 in test [1] is 1.14 µg/mL; in test [2] it was 21.2 nM; in test [3], 8 nM; in test [4], 18.3 nM.

B4: PS3B24 (bispecific antibody, human IgG4 S228P, kappa, lambda, F234A L235A)
heavy 1: not shown
light 1: not shown
heavy 2: B1 heavy 2
light 2: B1 light 2
notes: IgG4 PAA; PSMA arm chains first, then CD3 arm (F405L, R409K); also called PSMB124 x CD3B219
Regarding B4, the EC50 is 18.2 µg/mL in test [1], 7.75 nM in test [2] and 128 nM in test [3].

B5: PS3B30 (bispecific antibody, human IgG4 S228P, kappa, lambda, F234A L235A)
heavy 1: not shown
light 1: not shown
heavy 2: B1 heavy 2
light 2: B1 light 2
notes: IgG4 PAA; PSMA arm chains first, then CD3 arm (F405L, R409K); also called PSMB130 x CD3B219
For the molecule B5, the EC50 in test [1] was 5.37 µg/mL; in test [2] it was 23.2 nM; in test [3] it was 37.8 nM; in test [4], 8.5 nM.

B6: PS3B19 (bispecific antibody, human IgG4 S228P, kappa, lambda, F234A L235A)
heavy 1: not shown
light 1: not shown
heavy 2: B1 heavy 2
light 2: B1 light 2
notes: IgG4 PAA; PSMA arm chains first, then CD3 arm (F405L, R409K); also called PSMB119 x CD3B219
For B6, the EC50 was 1.76 µg/mL in test [1], 35.9 nM in test [2] and 12.4 nM in test [3].

B7: PS3B28 (bispecific antibody, human IgG4 S228P, kappa, lambda, F234A L235A)
heavy 1: not shown
light 1: not shown
heavy 2: B1 heavy 2
light 2: B1 light 2
notes: IgG4 PAA; PSMA arm chains first, then CD3 arm (F405L, R409K); also called PSMB128 x CD3B219
With B7, the EC50 in test [1] is 0.688 µg/mL; in test [2] it was 7.08 nM; in test [3] it was 4.8 nM; in test [4], 8.1 nM.

B8: PS3B20 (bispecific antibody, human IgG4 S228P, kappa, lambda, F234A L235A)
heavy 1: not shown
light 1: not shown
heavy 2: B1 heavy 2
light 2: B1 light 2
notes: IgG4 PAA; PSMA arm chains first, then CD3 arm (F405L, R409K); also called PSMB120 x CD3B219
As to B8, the EC50 was 2 µg/mL in test [1], 23.4 nM in test [2], 14.1 nM in test [3] and 864 nM in test [4].

What is called EC50 is the midpoint of the concentration-response curve.
